Consider three molecules from publication PMC3706390.

The target of data set [1] is T1, L30 (ribosomal protein L30) wild-type (rat, UniProt P62890 1-115). Nature of the data set: UV cross-linking; 30 mM Tris-HCl pH 8.0, 75 mM KCl, 5 mM MgCl2, 1 mM DTT, 0.04 ug/uL BSA, 10% glycerol, 50 ng/uL yeast tRNA, 30 C 15 min; EMSA gels 0.5X TBE at 4 C; RNase digesti. Background: A gel shift assay detects complexes by their altered migration in electrophoresis.
Data set [2] concerns the target T1, L30 (ribosomal protein L30) wild-type. Nature of the data set: EMSA; 5 mM Mg2+; 30 mM Tris-HCl pH 8.0, 75 mM KCl, 5 mM MgCl2, 1 mM DTT, 0.04 ug/uL BSA, 10% glycerol, 50 ng/uL yeast tRNA, 30 C 15 min; EMSA gels 0.5X TBE at 4 C; RNase digesti.

B1: PHGPx SECIS wild-type (UV cross-linking) (structured_RNA)
RNA: CUGCCCUGUGACCCCUGGAGCCUUCCACCCCGGCACUCAUGACGGUCUGCCUGAAAACCAGCCCGCUGGUGGGGCAGUCCCGAGGACCUGGCGUGCAUCCCCGCCGGAGGAAGGUCCAGACGCUGUGGCC
B1: in data set [1], the binding result is recorded as “binds”.

B2: PHGPx SECIS U40C (structured_RNA)
RNA: CUGCCCUGUGACCCCUGGAGCCUUCCACCCCGGCACUCACGACGGUCUGCCUGAAAACCAGCCCGCUGGUGGGGCAGUCCCGAGGACCUGGCGUGCAUCCCCGCCGGAGGAAGGUCCAGACGCUGUGGCC
For B2, the binding result in data set [1] is listed as “no binding”.

The term Kd denotes the free concentration of one partner at which half of the binding sites on the other are occupied at equilibrium, for simple one-to-one binding. The low end stands for a tighter complex, the high end for a looser complex. As for GGGACCGGAGUGUCGCAAGACGCAGAGAUGGUCC (structured_RNA) [L30 RNA (stem-loop of L30 pre-mRNA)], the Kd in data set [2] stood at 170 nM.
